# According to the DeepSol protein solubility set:
# Assay: soluble on expression in E. coli; label from the status in PepcDB or PDB records
row,Sequence,soluble on expression in E. coli
1,MAKYEILFKQLRLAILRGEYAPNDRLPSENAIAIKHGVSRITSKRALNELAAADLVYRVRGGGTFVKPHKSTTQRQILLVLPFPETTSFGDYPSGIQGTLAGTTWQLKLMANERFIQLNLDELASQYAGIIYYPQNLATELPILMRLYAQKMPLVVLDKQPAALAVPSVTSDNVAGGKIACEHLQSRGHHRIAFLPETPFWQTFTGTVSDRFLGYFNHLKLATSDAALPLRWAQALQACTTAVQLKAYIQAQRITAIIAENDVVALRALQRIQELTSNSDTSIALVGFDNLPAAARNNPALTTVVQDFAAIGAKAVEALLDQINNPEHLFDDQIVVGVKLMVRSSTNQY,not soluble
2,MALILTFLGKSGVARTKIAIAAAKLLASQGKRVLLAGLAEPVLPLLLEQTLTPDPQQIAPNLEVVQFQSSVLLERNWEEVKKLEAQYLRTPIIKEVYGQELVVLPGMDSALALNAIREYDASGKYDAIVYDGTGDAFTLRMLGLPESLSWYVRRFRQLFVNSDLGKTIAESPLIQPLISSFFNVNWTADNFAQPTNQVNNFLDKGKEALADPKRVAAFLVTTADPLEVVSVRYLWGSAQQIGLTIGGVIQVSSQTEGDLSAEFTPLEHHHHHH,not soluble
3,MALIQSCSGNTMTTDTIVAQATAPGRGGVGIIRVSGPLAAHVAQTVTGRTLRPRYAEYLPFTDEDGQQLDQGIALFFPNPHSFTGEDVLELQGHGGPVVMDMLIRRILQIKGVRPARPGEFSERAFLNDKMDLTQAEAIADLIDASSEQAAKSALQSLQGEFSKRIHTLVESLIHLRIYVEAAIDFPEEEIDFLADGKVSADLQTIIDNLAAVRREANQGAIMREGMKVVIAGRPNAGKSSLLNALSGKESAIVTDIAGTTRDVLREHIHIDGMPLHIIDTAGLRDASDAVEKIGIERAWEEIRQADRVLFMVDGTTTEATDPQDIWPDFVDKLPENIGITVIRNKADQTGEPLGICHVNQPTLIRLSAKTGQGVDALRQHLKECMGFSGNQEGGFMARRRHLDALERAAEHLAIGQQQLEGYMAGEILAEELRIAQQHLNEITGEFSSDDLLGRIFSSFCIGK,not soluble
4,MALKDRFDKIISYFDTDDVSENEVHEVQERTSVQRDSRAATAQEASQRSHMTNSAEEEMIGSRPRTYTYDPNRQERQRVQRDNAYQQATPRVQNKDSVRQQREQVTIALKYPRKYEDAQEIVDLLIVNECVLIDFQYMLDAQARRCLDYIDGASRVLYGSLQKVGSSMFLLTPANVMVDIEEMNIPKTGQETSFDFDMKRRLEHHHHHH,not soluble
5,MALLTKVTWNNIGMHQPQTNWYKGVWFPYSTPKYSFLLWLTIQNRLSTGDHIKAWNSGQQVTCTLCGNAEETRNLLFFSCHYTSEVWRTLTQRLLSNDYSRDWNRLLPLLCNTNMPTDLLFLFRYVFQASVYHIWRERNARRHGEISSPPNRLIKFIDKNVRNRINSIRDTGDHNYNACLQLWFSTRPLSSTHSL,soluble
6,MALLVTQPSEGLPPLAATSRSIYEAAYQLSQGTGPFAIDTERAGAYRYDDRAYLLQIRREGSGTVLIDPEANRRLVTSVLGKVINNQPWIIHAAATDLPCLSELGFYPSTIFDTELAGRLAGLPRVNLASMLEERLEVTLKKAHGAEDWSRRPLPHSWLVYAALDVEKLIPLAESMKLLLEAHGKLEWHKQECAHLINTSSHGLDTQRSWQDIKGVSRLTRPRQLVVAEALWELRDDEARMKNTSVSRLLPDKVLISVAQRPPRNSQAALRASEIPKQYRKRIARWMPTINDVLESDPRTWPHTPQFDENQLPSKYVWEKIHPESLDDFEEVKNSIVEKALLLNLPAENLMQPHSVKELCWQLRDVPRPIAQDDVIECLMRLEARPWQIDNSASVITDTLNKIEHAS,not soluble
7,MALNRMRQAKGAVASLLQNAYVHRDQVSLISFRGKQAQVLLPPSQSVDRAKRELDVLPTGGGTPLASALLTGWETAKQARAKGITQIMFVMITDGRGNIPLGAAYDPNATKASKEELEKEVEALALSIQADGIASIVVDTQMNYLSRGEAPKLAQKLGGRYFYLPNAKAEQIVEAALS,not soluble
8,MALPVTSSANQPTGTNNVAATKCKGCFCPGNPCQLCRLPPHTDDPIPENEPETCRLIREAVPPASFQPGENEYFANLDKATIQCIRSGDVIPNTRRVPGYPGRVYCKPGLPALGAH,not soluble
9,MALRDLSSSLSSSSSPELHVLAVDDSFVDRKVIERLLKISACKVTTVESGTRALQYLGLDGDNGSSGLKDLKVNLIVTDYSMPGLTGYELLKKIKESSALREIPVVIMSSENIQPRIEQCMIEGAEEFLLKPVKLADVKRLKELIMRGGEAEEGKTKKLSPKRILQNDIDSSPSSSSTSSSSSSHDVSSLDDDTPSSKRIKLESRG,not soluble
10,MALTATVRRAELQISDMDRGYYANHSLTLAQHPSETDERLMVRLLAFALFADDRLEFGRGLSNDDEPDLWRRDYTGDPDLWIDLGQPDESRVRKACNRSREAVVIGYGGQATETWWKKHANAMGRYRNLRVIELDSQATEALGALIQRGMRFDVIIQDGEVQMLADHGSVTLTPMVRQAPAE,soluble
11,MALTSDTQLNDIMRAAEAHKRIRGNLQKILKPGCSVREIIKYVEDSTRIMLHGEKNNGIGFPCGVSLNNVAAHFSLNPWNEDIILTKNDVLKIDFGTHSNGRIVDSAFSVSFDEKYTNLLLATKEATERGIKVIGIDMAVCEIGKEISEVFKSFEFEENGKMINIKPIWNLNGHSIDQYKIHAGISIPSINNGDYSRITPGFFAIETFASTGIGEIKDYGECSHFALASRPTTNKIYDKKNEEILNLIKKEFGTLPFSHQHLLYYTQNAKAAVQLLAARKFIDSYPPLVDIPKSYVAQFEHTLYITEKSKFNISKGDDYEGHHHHHH,soluble
12,MAMIKQILRLLFLLAMYELGKYVTEQVYIMMTANDDVEAPSDYVFRAEVSELEHHHHHH,not soluble
13,MAMVSEFLKQAWFIDNEEQEYIKTVKGSKGGPGSAVSPYPTFNPSSDVEALHKAITVKGVDEATIIEILTKRTNAQRQQIKAAYLQEKGKPLDEALKKALTGHLEEVALALLKTPAQFDADELRAAMKGLGTDEDTLNEILASRTNREIREINRVYKEELKRDLAKDITSDTSGDYQKALLSLAKGDRSEDLAINDDLADTDARALYEAGERRKGTDLNVFITILTTRSYPHLRRVFQKYSKYSKHDMNKVLDLELKGDIENCLTVVVKCATSKPMFFAEKLHQAMKGIGTRHKTLIRIMVSRSEIDMNDIKACYQKLYGISLCQAILDETKGDYEKILVALCGGD,soluble
14,MAMVSGRRSTLNPDAPLFIPAAVRQVEDFSPEWWQLVTTSTWYPDYWISQQQQGADGFYDNGENENGGGHIDVADLLPESFDFDDMEDFFDTDAAEFDQGFDGRMYYQAPSEFGFGKNGEMVKKSSGNRSPRSIVEPAKYAEKPAKWGNQRVAAAPRNIHQPR,soluble
15,MAMVVSSWRDPQDDVAGGNPGGPNPAAQAARGGGGGAGEQQQQAGSGAPHTPQTPGQPGAPATPGTAGDKGQGPPGSGQSQQHIECVVCGDKSSGKHYGQFTCEGCKSFFKRSVRRNLTYTCRANRNCPIDQHHRNQCQYCRLKKCLKVGMRREAVQRGRMPPTQPNPGQYALTNGDPLNGHCYLSGYISLLLRAEPYPTSRYGSQCMQPNNIMGIENICELAARLLFSAVEWARNIPFFPDLQITDQVSLLRLTWSELFVLNAAQCSMPLHVAPLLAAAGLHASPMSADRVVAFMDHIRIFQEQVEKLKALHVDSAEYSCLKAIVLFTSDACGLSDAAHIESLQEKSQCALEEYVRSQYPNQPSRFGKLLLRLPSLRTVSSSVIEQLFFVRLVGKTPIETLIRDMLLSGSSFNWPYMSIQCS,soluble
